Values quoted from earlier work as cited in article PMC6321638.

Target: ALG-2 (Homo sapiens) (UniProt O75340)
Assay: SPR

Chain of ALG-2 (Homo sapiens) (O75340 2-191): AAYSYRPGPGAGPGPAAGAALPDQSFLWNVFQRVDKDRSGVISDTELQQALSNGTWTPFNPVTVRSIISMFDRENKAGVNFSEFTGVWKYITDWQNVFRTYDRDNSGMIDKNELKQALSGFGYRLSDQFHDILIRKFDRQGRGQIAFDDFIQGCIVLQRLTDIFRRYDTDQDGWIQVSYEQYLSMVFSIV

Kd: 200 nM
Substance: ALIX peptide
